Assay results reported in patent US20140127814.

Tests used:
[1] = system: CCR5 4-finger ZFN-R (ZFP-FokI) (artificial); test: cell_activity; settings: with ZFN-L and WT CFTR donor in CCR5-expressing HEK293 Flp-In; 17% with CFTR delta508F donor; NHEJ deletions at endogenous CCR5
[2] = system: CCR5 4-finger ZFN-L (ZFP-FokI) (artificial); test: cell_activity; settings: with ZFN-R and WT CFTR donor in CCR5-expressing HEK293 Flp-In; 17% with CFTR delta508F donor; NHEJ deletions at endogenous CCR5

Sequence	activity (% CCR5-negative cells) [1]	activity (% CCR5-negative cells) [2]
AAACTGCAAAAG (double strand) [CCR5 ZFN-R half-site]	23	–
GTCATCCTCATC (double strand) [CCR5 ZFN-L half-site]	–	23
